{"source": "paper PMC3169596", "about": "“G4-DNA Formation in the HRAS Promoter and Rational Design of Decoy Oligonucleotides for Cancer Therapy”", "target": "T1, MAZ-GST (UniProt P56270 1-477)", "T1 sequence": "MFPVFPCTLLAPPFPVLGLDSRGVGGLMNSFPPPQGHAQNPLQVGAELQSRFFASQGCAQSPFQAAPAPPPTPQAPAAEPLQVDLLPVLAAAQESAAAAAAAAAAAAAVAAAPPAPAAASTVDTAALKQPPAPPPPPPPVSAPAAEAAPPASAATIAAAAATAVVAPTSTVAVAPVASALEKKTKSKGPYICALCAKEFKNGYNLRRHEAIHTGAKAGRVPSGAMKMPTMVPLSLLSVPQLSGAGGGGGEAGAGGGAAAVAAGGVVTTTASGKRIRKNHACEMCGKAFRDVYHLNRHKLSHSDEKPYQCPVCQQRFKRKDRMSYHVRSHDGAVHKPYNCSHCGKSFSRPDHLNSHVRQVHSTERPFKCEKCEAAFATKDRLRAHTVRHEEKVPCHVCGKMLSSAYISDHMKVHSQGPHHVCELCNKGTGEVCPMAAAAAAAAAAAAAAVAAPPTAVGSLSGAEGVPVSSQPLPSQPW", "test": "EMSA; 50 mM KCl, pH 7.4, poly d(I-C); apparent Kd given for the HRAS quadruplexes together; EMSA: 20 mM Tris-HCl pH 8, 30 mM KCl, 1.5 mM MgCl2, 1 mM DTT, 8% glycerol, 5 mM NaF, 1 mM Na3VO4, 2.5 ng/ml poly[dI-dC], 30 min room temperature (Figure 6c: pH)", "details": "protein: recombinant; tags: GST; label: 33P; antiparallel intramolecular G4 in K+", "data": [{"binder": "TCGGGTTGCGGGCGCAGGGCACGGGCG (structured_DNA)", "note": "[qhras-1 (quadruplex hras-1, H1)]", "values": [{"measurement": "Kd", "value": "~1.5", "unit": "µM"}]}]}
